Experimental data reported in patent publication US20060183195A1 (published 2006).
Substitutions are numbered along the chain they refer to.

B1: 6G5.1 (antibody, human IgG1, V domains shown)
VH: QVQLQQWGAGLLKPSETLSLTCAVYGGSFSGYYWSWIRQPPGKGLEWIGEINHSGSTNYNPSLKSRVTISVDTSKNQFSLKLSSVTAADTAVYYCARVINWFDPWGQGTLVTVSS
VL: DIQMTQSPSSVSASVGDRVTITCRASQDISSWLAWYQHKPGKAPKLLIYAASSLQSGVPSRFSGSGSGTDFTLTISSLQPEDFATYYCQQANSFPYTFGQGTKLEIKR
notes: Human IgG1 kappa from a hybridoma of an HC2/KCo5 transgenic mouse; VH4-34/JH5; VkL19/Jk2
B2: 4D1.4 (antibody, V domains shown)
VH: EVQLVQSGAEVKKPGESLKISCKGSGYSFTGYWIGWVRQMPGKGLEWMGIIYPGDSDTTYSPSFQGQVTISADKSISTAYLQWSSLKASDTAMYYCARDQLGLFDYWGQGTLVTVSS
VL: B1 VL with V11L, D28G, H38Q, G41E, L46S, A50S, A91Y, N92D, F94Y
notes: Human IgG1 kappa from a hybridoma of an HC2/KCo5 transgenic mouse
B3: 10C5.6 (antibody, human IgG1, V domains shown)
VH: B1 VH
VL: DIQMTQSPSSVSASVGDRVTITCRASQDISSWLAWYQHKPGKAPKLLIYAASSLQSGVPSRFSGSGSGTDFTLTISSLQPEDFATYYCQQANSFPYTFGQGTKLEIK
notes: as for B2
B4: 4E4.2 (antibody, V domains shown)
VH: EVQLVQSGAEVKKPGESLKISCKGSGYRFTSYWIGWVRQMPGKGLEWMGIIYPGDSDTRYSPSFQGQVTISADKSISTAYLQWSSLKASDTAMYYCARAPTGDWFDPWGQGTLVTVSS
VL: DIQMTQSPSSLSASVGDRVTITCRASQGISSWLAWYQQKPDKAPKSLIYAASSLQSGVPSKFSGSGSGTDFTLTISSLQPEDFATYYCQQYNSYPPTFGGGTKVEIKR
B5: 2C5.1 (antibody, V domains shown)
VH: B4 VH
VL: B4 VL with D41E, K61R

Legend:
[1] = molecular target: T1, native human CD4 on the cell surface (human, UniProt P01730 26-458); test: ratio of Ka on rCD4 (BIAcore) to Ka on nCD4 (flow cytometry, SupT1)
T1 construct: whole, on cells; also called native CD4; CD4 on SupT1 cells
Procedure: (§1) The rate and equilibrium constants presented in Table 19 were determined with a BIAcore, using antigen (rCD4) coupled to the sensor chip and flowing mAb over. These constants were derived from at least three independent experiments using purified mAbs.
(§2) The avidity and affinity determinations described above were performed with recombinant CD4 (rCD4). To determine the avidity of the human monoclonal antibodies for native CD4 (nCD4). […] Specifically, serial dilutions of antibody were incubated with SupT1 cells for 6 hr on ice, washed and detected any bound antibody with FITC-goat anti-human Fey.
(§3) *Human monoclonal antibodies were incubated in serial dilutions with SupT1 cells for 6 hrs, washed twice and incubated with FITC-conjugated goat anti-human Fey antisera, washed and fixed. The Ka was calculated from the concentration of antibody yielding one-half of the maximum fluorescence as determined from a four-parameter fit.

[2] = molecular target: T2, recombinant soluble human CD4 (human, UniProt P01730 26-396, limits assumed); test: SPR, sCD4 amine-coupled to sensor chip, antibody flowed over
T2 construct: Soluble recombinant antigen used in ELISA and on or over the sensor chip; also called rCD4; sCD4

[3] = molecular target: T2, recombinant soluble human CD4; test: BIAcore, mAb captured on anti-human IgG Fc chip, rCD4 flowed over
Procedure: The rate and equilibrium constants presented in Table 18 were determined with a BIAcore (Pharmacia Biosensor) using goat anti-human IgG (Fc-specific) coupled to the sensor chip and flowing a saturating concentration of mAb over followed by various concentrations of antigen (rCD4). These constants were derived from three experiments using purified mAbs.

[4] = molecular target: T2, recombinant soluble human CD4; test: BIAcore, rCD4 coupled to chip, mAb flowed over
Procedure: as §1

[5] = molecular target: T1, native human CD4 on the cell surface; test: flow cytometry, serial dilutions on SupT1 cells, half-maximal fluorescence
Procedure: as §2, §3

[6] = molecular target: T1, native human CD4 on the cell surface; test: flow cytometry, serial dilutions on SupT1 cells
Procedure: as §2, §3

[7] = molecular target: T2, recombinant soluble human CD4; test: rCD4 column of Table 21 (same values as Table 19: BIAcore, rCD4 on chip)
Procedure: as §1

[8] = molecular target: T3, cynomolgus monkey CD4 on peripheral blood lymphocytes (cynomolgus monkey, UniProt P79185 26-458); test: two-colour flow cytometry on peripheral blood lymphocytes
T3 construct: whole, on cells; also called cynomolgus CD4 cells
Procedure: (§4) It is further desirable for some purposes that the animal be a non-human primate that expresses CD4 comprising a cross-reactive epitope with human CD4 such that it is recognized by the monoclonal antibody. […] Peripheral blood lymphocytes were isolated from whole blood of chimpanzee, rhesus, and cynomolgus monkeys. […] The stained cells were then analyzed by flow cytometry to determine if each of the human monoclonal antibodies bound to endogenous CD4 on the surface of lymphocytes from each of these three non-human primates.

[9] = molecular target: T4, chimpanzee CD4 on peripheral blood lymphocytes (chimpanzee, UniProt P16004 26-458); test: as above
T4 construct: whole, on cells; also called chimpanzee CD4 cells
Procedure: as §4

[10] = molecular target: T5, rhesus monkey CD4 on peripheral blood lymphocytes (rhesus monkey, UniProt P16003 26-458); test: as above
T5 construct: whole, on cells; also called rhesus CD4 cells
Procedure: as §4

[11] = molecular target: T2, recombinant soluble human CD4; test: association and dissociation rates of human CD4 antigen for the antibody; method not named

T3 sequence (P79185 26-458): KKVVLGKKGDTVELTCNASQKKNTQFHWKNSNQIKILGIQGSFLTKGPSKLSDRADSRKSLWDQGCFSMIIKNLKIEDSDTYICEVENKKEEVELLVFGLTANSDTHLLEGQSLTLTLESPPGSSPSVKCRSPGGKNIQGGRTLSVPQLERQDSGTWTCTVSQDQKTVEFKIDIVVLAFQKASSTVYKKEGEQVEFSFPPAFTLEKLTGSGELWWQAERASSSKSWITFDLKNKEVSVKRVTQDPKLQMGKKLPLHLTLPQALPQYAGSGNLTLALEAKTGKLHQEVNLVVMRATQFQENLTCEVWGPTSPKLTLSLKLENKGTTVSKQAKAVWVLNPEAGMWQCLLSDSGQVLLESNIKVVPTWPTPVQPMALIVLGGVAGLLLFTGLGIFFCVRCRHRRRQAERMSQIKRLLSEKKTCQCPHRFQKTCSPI
T4 sequence (P16004 26-458): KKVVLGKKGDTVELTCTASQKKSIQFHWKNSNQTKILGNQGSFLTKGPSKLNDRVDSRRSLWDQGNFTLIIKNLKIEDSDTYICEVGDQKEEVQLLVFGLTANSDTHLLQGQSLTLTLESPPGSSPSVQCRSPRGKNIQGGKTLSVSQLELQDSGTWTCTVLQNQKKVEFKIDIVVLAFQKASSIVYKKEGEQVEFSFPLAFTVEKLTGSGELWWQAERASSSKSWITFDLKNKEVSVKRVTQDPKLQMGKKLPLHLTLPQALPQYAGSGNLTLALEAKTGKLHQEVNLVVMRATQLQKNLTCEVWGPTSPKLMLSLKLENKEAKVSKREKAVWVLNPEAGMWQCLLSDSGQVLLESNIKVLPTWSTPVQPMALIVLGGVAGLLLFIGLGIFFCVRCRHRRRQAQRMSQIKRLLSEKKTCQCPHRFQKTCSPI
T5 sequence (P16003 26-458): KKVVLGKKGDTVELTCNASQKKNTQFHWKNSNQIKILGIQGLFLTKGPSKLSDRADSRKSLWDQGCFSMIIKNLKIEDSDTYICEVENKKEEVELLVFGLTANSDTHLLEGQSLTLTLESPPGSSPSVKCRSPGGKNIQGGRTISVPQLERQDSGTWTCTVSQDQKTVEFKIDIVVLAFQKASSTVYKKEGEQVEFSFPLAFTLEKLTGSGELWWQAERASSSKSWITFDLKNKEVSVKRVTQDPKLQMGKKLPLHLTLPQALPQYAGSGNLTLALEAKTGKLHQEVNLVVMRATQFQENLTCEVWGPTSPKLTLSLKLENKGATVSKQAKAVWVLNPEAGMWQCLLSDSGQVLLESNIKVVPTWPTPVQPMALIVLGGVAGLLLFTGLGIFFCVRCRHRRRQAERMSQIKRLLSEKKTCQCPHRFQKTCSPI

Row | Binder | Ratio of Ka (rCD4/nCD4) [1] | Ka [2] [M⁻¹] | koff [2] [s⁻¹] | kon [2] [M⁻¹ s⁻¹] | Ka [3] [M⁻¹] | koff [3] [s⁻¹] | kon [3] [M⁻¹ s⁻¹] | Ka [4] [M⁻¹] | koff [4] [s⁻¹] | kon [4] [M⁻¹ s⁻¹] | Ka [5] [M⁻¹] | Ka [6] [M⁻¹] | Ka [7] [M⁻¹] | binding result [8] | binding result [9] | binding result [10] | Ka [11] [M⁻¹]
1 | B1 | 5.9 | 1.1e+10 | 1e-05 | 110000 | 1.4e+08 | 0.00069 | 93000 | 1.1e+10 | 1e-05 | 110000 | 1e+09 | > 1e+09 | 1.1e+10 |  |  |  | 
2 | B2 | 1.2 | 2.3e+09 | 4.2e-05 | 98000 | 7.3e+07 | 0.0034 | 250000 | 2.3e+09 | 4.2e-05 | 98000 | 2e+09 | > 1e+09 | 2.3e+09 |  |  |  | 
3 | B3 | 2.5 | 4.5e+10 | 1.6e-05 | 74000 | 1.3e+08 | 0.00071 | 94000 | 4.5e+09 | 1.6e-05 | 74000 | 1e+09 | > 1e+09 | 4.5e+09 | binds | binds | binds | 
4 | B4 |  |  |  |  |  |  |  |  |  |  |  |  |  |  |  |  | ~9e+07
5 | B5 |  |  |  |  |  |  |  |  |  |  |  |  |  |  |  |  | ~8e+07
